Experimental findings from PMC8101287 (2020) are described below.

For assay [1], the target named is T1, HLA‐DR1 (HLA‐DRA1*01:01/HLA‐DRB*01:01) complexed with the HA_(306‐318) peptide, refolded from E. coli (human | ). Description: SPR. On the technique in general: Surface plasmon resonance follows binding to a sensor surface in real time, without labels.
Assay [2] has as its target T1, HLA‐DR1 (HLA‐DRA1*01:01/HLA‐DRB*01:01) …. The assay can be described thus: SPR. This is another data set of the same source.

Values joined by “and” are separate entries in the source; they are usually repeats but may differ in a detail not shown here. Identical values can stand only once. Like-named read-outs stand apart in the source and are kept apart here.

B1: LAG‐3:Fc fusion protein (four extracellular domains of LAG‐3 and the Fc domain of IgG) (Fc fusion)
chain: LQPGAEVPVVWAQEGAPAQLPCSPTIPLQDLSLLRRAGVTWQHQPDSGPPAAAPGHPLAPGPHPAAPSSWGPRPRRYTVLSVGPGGLRSGRLPLQPRVQLDERGRQRGDFSLWLRPARRADAGEYRAAVHLRDRALSCRLRLRLGQASMTASPPGSLRASDWVILNCSFSRPDRPASVHWFRNRGQGRVPVRESPHHHLAESFLFLPQVSPMDSGPWGCILTYRDGFNVSIMYNLTVLGLEPPTPLTVYAGAGSRVGLPCRLPAGVGTRSFLTAKWTPPGGGPDLLVTGDNGDFTLRLEDVSQAQAGTYTCHIHLQEQQLNATVTLAIITVTPKSFGSPGSLGKLLCEVTPVSGQERFVWSSLDTPSQRSFSGPWLEAQEAQLLSQPWQCQLYQGERLLGAAVYFTELSSPGAQRSGRAPGALPAGHL
On to B1, for which the Kd is 7.3 µM in assay [1]; 3000 nM and 1000 nM in assay [2].

As usually defined, the Kd is the constant that tells how readily two partners part at equilibrium. Low values mean higher affinity, high ones lower affinity.
